Biological target: T1, H2-K^b (Mus musculus, UniProt P01901)
T1 sequence (P01901 22-369): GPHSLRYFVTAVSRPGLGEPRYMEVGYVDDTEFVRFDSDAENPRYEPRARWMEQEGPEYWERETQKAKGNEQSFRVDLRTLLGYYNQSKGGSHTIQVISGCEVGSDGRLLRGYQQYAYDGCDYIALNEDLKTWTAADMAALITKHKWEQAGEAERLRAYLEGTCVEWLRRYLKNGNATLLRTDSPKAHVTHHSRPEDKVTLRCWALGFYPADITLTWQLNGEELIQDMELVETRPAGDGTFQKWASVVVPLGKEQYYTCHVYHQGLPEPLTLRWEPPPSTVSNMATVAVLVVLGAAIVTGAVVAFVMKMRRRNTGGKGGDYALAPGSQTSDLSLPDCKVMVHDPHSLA
T1 sequence (P01887 21-119 partner): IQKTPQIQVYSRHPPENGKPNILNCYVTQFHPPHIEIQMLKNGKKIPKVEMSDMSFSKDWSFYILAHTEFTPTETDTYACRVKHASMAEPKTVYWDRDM
Assay: Peptide binding assay (assembly/stabilization assay in RMA-S cell lysate)
Conditions: in vitro binding assay, compared with positive control peptide SEV
Method: Binding of each peptide to H2-K^b was performed using the assembly assay as described (29). This assay is based on the observation that, in a detergent lysate of RMA-S cells, K^b molecules are unstable and dissociate after an overnight incubation at 4° C. unless a stabilising (K^b-binding) peptide is added at the time of lysis. Only stabilised K^b molecules can therefore be recovered by immunoprecipitation with mAb Y3 after overnight incubation. The amount of recovered K^b is directly proportional to the amount of peptide bound, and the concentration of peptide required to effect 50% maximal recovery represents an approximate binding affinity (29). Recovery of H2-K^b heavy chains (HC) was quantitated after immunoprecipitation and SDS PAGE using AIDA (Fuji).

Sequence	binding to H2-K^b
SNWYFNHL [peptide 1]	comparable to the positive control
LNIYYRRL [peptide 2]	comparable to the positive control
